Data from patent US20240270846A1 (published 2024).

Target: T1, CD3 epsilon homodimer protein (UniProt P07766 23-126)
T1 construct: Construct of the homodimer protein is not described; also called CD3 (CD3 epsilon)
Test: SPR (Biacore T200), CD3 epsilon homodimer on CM4 chip, one-arm antibody as analyte; ratio to unaltered CE115HA000;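 also: surface plasmon resonance run at 25 °C with HBS-EP+ as running buffer, CD3 epsilon homodimer attached by amine coupling, antibody passed over as analyte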

T1 sequence (P07766 23-126): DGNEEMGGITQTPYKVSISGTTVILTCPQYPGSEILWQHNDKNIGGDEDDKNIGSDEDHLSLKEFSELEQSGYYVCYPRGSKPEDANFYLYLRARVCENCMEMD

KD ratio (KD value of CE115HA000/KD value of the altered form) | Binder
3.14 | CE115HA000 H96L one-arm antibody (antibody, human IgG1, kappa, L234A L235A, N297A, name in Kabat numbering, one-arm antibody) heavy: QVQLVESGGGVVQPGRSLRLSCAASGFTFSNAWMHWVRQAPGKGLEWVAQIKAKSNNYATYYAESVKGRFTISRDDSKNSLYLQMNSLKTEDTAVYYCRYVLYGAYYGVDAWGQGTTVTVSSASTKGPSVFPLAPSSKSTSGGTAALGCLVKDYFPEPVTVSWNSGALTSGVHTFPAVLQSSGLYSLSSVVTVPSSSLGTQTYICNVNHKPSNTKVDKKVEPKSCDKTHTCPPCPAPEAAGGPSVFLFPPKPKDTLMISRTPEVTCVVVDVSHEDPEVKFNWYVDGVEVHNAKTKPREEQYASTYRVVSVLTVLHQDWLNGKEYKCKVSNKALPAPIEKTISKAKGQPREPQVYTLPPSRCELTKNQVSLSCAVKGFYPSDIAVEWESNGQPENNYKTTPPVLDSDGSFFLVSKLTVDKSRWQQGNVFSCSVMHEALHNHYTQKSLSLSPDYKDDDDK EPKSSDKTHTCPPCPAPELLGGPSVFLFPPKPKDTLMISRTPEVTCVVVDVSHEDPEVKFNWYVDGVEVHNAKTKPREEQYNSTYRVVSVLTVLHQDWLNGKEYKCKVSNKALPAPIEKTISKAKGQPREPQVCTLPPSRDELTKNQVSLWCLVKGFYPSDIAVEWESNGQPENNYKTTPPVLDSDGSFFLYSKLTVDKSRWQQGNVFSCSVMHEALHNRYTQKSLSLSP light: DIVMTQSPLSLPVTPGEPASISCRSSQSLVHSNRNTYLHWYQQKPGQAPRLLIYKVSNRFSGVPDRFSGSGSGTDFTLKISRVEAEDVGVYYCGQGTQVPYTFGQGTKLEIKRTVAAPSVFIFPPSDEQLKSGTASVVCLLNNFYPREAKVQWKVDNALQSGNSQESVTEQDSKDSTYSLSSTLTLSKADYEKHKVYACEVTHQGLSSPVTKSFNRGEC
1.36 | CE115HA000 H96Q one-arm antibody (antibody, human IgG1, kappa, L234A L235A, N297A, name in Kabat numbering, one-arm antibody) heavy: QVQLVESGGGVVQPGRSLRLSCAASGFTFSNAWMHWVRQAPGKGLEWVAQIKAKSNNYATYYAESVKGRFTISRDDSKNSLYLQMNSLKTEDTAVYYCRYVQYGAYYGVDAWGQGTTVTVSSASTKGPSVFPLAPSSKSTSGGTAALGCLVKDYFPEPVTVSWNSGALTSGVHTFPAVLQSSGLYSLSSVVTVPSSSLGTQTYICNVNHKPSNTKVDKKVEPKSCDKTHTCPPCPAPEAAGGPSVFLFPPKPKDTLMISRTPEVTCVVVDVSHEDPEVKFNWYVDGVEVHNAKTKPREEQYASTYRVVSVLTVLHQDWLNGKEYKCKVSNKALPAPIEKTISKAKGQPREPQVYTLPPSRCELTKNQVSLSCAVKGFYPSDIAVEWESNGQPENNYKTTPPVLDSDGSFFLVSKLTVDKSRWQQGNVFSCSVMHEALHNHYTQKSLSLSPDYKDDDDK EPKSSDKTHTCPPCPAPELLGGPSVFLFPPKPKDTLMISRTPEVTCVVVDVSHEDPEVKFNWYVDGVEVHNAKTKPREEQYNSTYRVVSVLTVLHQDWLNGKEYKCKVSNKALPAPIEKTISKAKGQPREPQVCTLPPSRDELTKNQVSLWCLVKGFYPSDIAVEWESNGQPENNYKTTPPVLDSDGSFFLYSKLTVDKSRWQQGNVFSCSVMHEALHNRYTQKSLSLSP light: DIVMTQSPLSLPVTPGEPASISCRSSQSLVHSNRNTYLHWYQQKPGQAPRLLIYKVSNRFSGVPDRFSGSGSGTDFTLKISRVEAEDVGVYYCGQGTQVPYTFGQGTKLEIKRTVAAPSVFIFPPSDEQLKSGTASVVCLLNNFYPREAKVQWKVDNALQSGNSQESVTEQDSKDSTYSLSSTLTLSKADYEKHKVYACEVTHQGLSSPVTKSFNRGEC
1.59 | CE115HA000 H96R one-arm antibody (antibody, human IgG1, kappa, L234A L235A, N297A, name in Kabat numbering, one-arm antibody) heavy: QVQLVESGGGVVQPGRSLRLSCAASGFTFSNAWMHWVRQAPGKGLEWVAQIKAKSNNYATYYAESVKGRFTISRDDSKNSLYLQMNSLKTEDTAVYYCRYVRYGAYYGVDAWGQGTTVTVSSASTKGPSVFPLAPSSKSTSGGTAALGCLVKDYFPEPVTVSWNSGALTSGVHTFPAVLQSSGLYSLSSVVTVPSSSLGTQTYICNVNHKPSNTKVDKKVEPKSCDKTHTCPPCPAPEAAGGPSVFLFPPKPKDTLMISRTPEVTCVVVDVSHEDPEVKFNWYVDGVEVHNAKTKPREEQYASTYRVVSVLTVLHQDWLNGKEYKCKVSNKALPAPIEKTISKAKGQPREPQVYTLPPSRCELTKNQVSLSCAVKGFYPSDIAVEWESNGQPENNYKTTPPVLDSDGSFFLVSKLTVDKSRWQQGNVFSCSVMHEALHNHYTQKSLSLSPDYKDDDDK EPKSSDKTHTCPPCPAPELLGGPSVFLFPPKPKDTLMISRTPEVTCVVVDVSHEDPEVKFNWYVDGVEVHNAKTKPREEQYNSTYRVVSVLTVLHQDWLNGKEYKCKVSNKALPAPIEKTISKAKGQPREPQVCTLPPSRDELTKNQVSLWCLVKGFYPSDIAVEWESNGQPENNYKTTPPVLDSDGSFFLYSKLTVDKSRWQQGNVFSCSVMHEALHNRYTQKSLSLSP light: DIVMTQSPLSLPVTPGEPASISCRSSQSLVHSNRNTYLHWYQQKPGQAPRLLIYKVSNRFSGVPDRFSGSGSGTDFTLKISRVEAEDVGVYYCGQGTQVPYTFGQGTKLEIKRTVAAPSVFIFPPSDEQLKSGTASVVCLLNNFYPREAKVQWKVDNALQSGNSQESVTEQDSKDSTYSLSSTLTLSKADYEKHKVYACEVTHQGLSSPVTKSFNRGEC
1.15 | CE115HA000 H96S one-arm antibody (antibody, human IgG1, kappa, L234A L235A, N297A, name in Kabat numbering, one-arm antibody) heavy: QVQLVESGGGVVQPGRSLRLSCAASGFTFSNAWMHWVRQAPGKGLEWVAQIKAKSNNYATYYAESVKGRFTISRDDSKNSLYLQMNSLKTEDTAVYYCRYVSYGAYYGVDAWGQGTTVTVSSASTKGPSVFPLAPSSKSTSGGTAALGCLVKDYFPEPVTVSWNSGALTSGVHTFPAVLQSSGLYSLSSVVTVPSSSLGTQTYICNVNHKPSNTKVDKKVEPKSCDKTHTCPPCPAPEAAGGPSVFLFPPKPKDTLMISRTPEVTCVVVDVSHEDPEVKFNWYVDGVEVHNAKTKPREEQYASTYRVVSVLTVLHQDWLNGKEYKCKVSNKALPAPIEKTISKAKGQPREPQVYTLPPSRCELTKNQVSLSCAVKGFYPSDIAVEWESNGQPENNYKTTPPVLDSDGSFFLVSKLTVDKSRWQQGNVFSCSVMHEALHNHYTQKSLSLSPDYKDDDDK EPKSSDKTHTCPPCPAPELLGGPSVFLFPPKPKDTLMISRTPEVTCVVVDVSHEDPEVKFNWYVDGVEVHNAKTKPREEQYNSTYRVVSVLTVLHQDWLNGKEYKCKVSNKALPAPIEKTISKAKGQPREPQVCTLPPSRDELTKNQVSLWCLVKGFYPSDIAVEWESNGQPENNYKTTPPVLDSDGSFFLYSKLTVDKSRWQQGNVFSCSVMHEALHNRYTQKSLSLSP light: DIVMTQSPLSLPVTPGEPASISCRSSQSLVHSNRNTYLHWYQQKPGQAPRLLIYKVSNRFSGVPDRFSGSGSGTDFTLKISRVEAEDVGVYYCGQGTQVPYTFGQGTKLEIKRTVAAPSVFIFPPSDEQLKSGTASVVCLLNNFYPREAKVQWKVDNALQSGNSQESVTEQDSKDSTYSLSSTLTLSKADYEKHKVYACEVTHQGLSSPVTKSFNRGEC
6.67 | CE115HA000 H96Y one-arm antibody (antibody, human IgG1, kappa, L234A L235A, N297A, name in Kabat numbering, one-arm antibody) heavy: QVQLVESGGGVVQPGRSLRLSCAASGFTFSNAWMHWVRQAPGKGLEWVAQIKAKSNNYATYYAESVKGRFTISRDDSKNSLYLQMNSLKTEDTAVYYCRYVYYGAYYGVDAWGQGTTVTVSSASTKGPSVFPLAPSSKSTSGGTAALGCLVKDYFPEPVTVSWNSGALTSGVHTFPAVLQSSGLYSLSSVVTVPSSSLGTQTYICNVNHKPSNTKVDKKVEPKSCDKTHTCPPCPAPEAAGGPSVFLFPPKPKDTLMISRTPEVTCVVVDVSHEDPEVKFNWYVDGVEVHNAKTKPREEQYASTYRVVSVLTVLHQDWLNGKEYKCKVSNKALPAPIEKTISKAKGQPREPQVYTLPPSRCELTKNQVSLSCAVKGFYPSDIAVEWESNGQPENNYKTTPPVLDSDGSFFLVSKLTVDKSRWQQGNVFSCSVMHEALHNHYTQKSLSLSPDYKDDDDK EPKSSDKTHTCPPCPAPELLGGPSVFLFPPKPKDTLMISRTPEVTCVVVDVSHEDPEVKFNWYVDGVEVHNAKTKPREEQYNSTYRVVSVLTVLHQDWLNGKEYKCKVSNKALPAPIEKTISKAKGQPREPQVCTLPPSRDELTKNQVSLWCLVKGFYPSDIAVEWESNGQPENNYKTTPPVLDSDGSFFLYSKLTVDKSRWQQGNVFSCSVMHEALHNRYTQKSLSLSP light: DIVMTQSPLSLPVTPGEPASISCRSSQSLVHSNRNTYLHWYQQKPGQAPRLLIYKVSNRFSGVPDRFSGSGSGTDFTLKISRVEAEDVGVYYCGQGTQVPYTFGQGTKLEIKRTVAAPSVFIFPPSDEQLKSGTASVVCLLNNFYPREAKVQWKVDNALQSGNSQESVTEQDSKDSTYSLSSTLTLSKADYEKHKVYACEVTHQGLSSPVTKSFNRGEC
0.81 | CE115HA000 K64A one-arm antibody (antibody, human IgG1, kappa, L234A L235A, N297A, name in Kabat numbering, one-arm antibody) heavy: QVQLVESGGGVVQPGRSLRLSCAASGFTFSNAWMHWVRQAPGKGLEWVAQIKAKSNNYATYYAESVAGRFTISRDDSKNSLYLQMNSLKTEDTAVYYCRYVHYGAYYGVDAWGQGTTVTVSSASTKGPSVFPLAPSSKSTSGGTAALGCLVKDYFPEPVTVSWNSGALTSGVHTFPAVLQSSGLYSLSSVVTVPSSSLGTQTYICNVNHKPSNTKVDKKVEPKSCDKTHTCPPCPAPEAAGGPSVFLFPPKPKDTLMISRTPEVTCVVVDVSHEDPEVKFNWYVDGVEVHNAKTKPREEQYASTYRVVSVLTVLHQDWLNGKEYKCKVSNKALPAPIEKTISKAKGQPREPQVYTLPPSRCELTKNQVSLSCAVKGFYPSDIAVEWESNGQPENNYKTTPPVLDSDGSFFLVSKLTVDKSRWQQGNVFSCSVMHEALHNHYTQKSLSLSPDYKDDDDK EPKSSDKTHTCPPCPAPELLGGPSVFLFPPKPKDTLMISRTPEVTCVVVDVSHEDPEVKFNWYVDGVEVHNAKTKPREEQYNSTYRVVSVLTVLHQDWLNGKEYKCKVSNKALPAPIEKTISKAKGQPREPQVCTLPPSRDELTKNQVSLWCLVKGFYPSDIAVEWESNGQPENNYKTTPPVLDSDGSFFLYSKLTVDKSRWQQGNVFSCSVMHEALHNRYTQKSLSLSP light: DIVMTQSPLSLPVTPGEPASISCRSSQSLVHSNRNTYLHWYQQKPGQAPRLLIYKVSNRFSGVPDRFSGSGSGTDFTLKISRVEAEDVGVYYCGQGTQVPYTFGQGTKLEIKRTVAAPSVFIFPPSDEQLKSGTASVVCLLNNFYPREAKVQWKVDNALQSGNSQESVTEQDSKDSTYSLSSTLTLSKADYEKHKVYACEVTHQGLSSPVTKSFNRGEC
